The numbers were not newly measured in article PMC9574052, which cites them from elsewhere.

The data set concerns the target oxytocin receptor (Homo sapiens) (UniProt P30559).
UniProt P30559, sequence (P30559 whole entry): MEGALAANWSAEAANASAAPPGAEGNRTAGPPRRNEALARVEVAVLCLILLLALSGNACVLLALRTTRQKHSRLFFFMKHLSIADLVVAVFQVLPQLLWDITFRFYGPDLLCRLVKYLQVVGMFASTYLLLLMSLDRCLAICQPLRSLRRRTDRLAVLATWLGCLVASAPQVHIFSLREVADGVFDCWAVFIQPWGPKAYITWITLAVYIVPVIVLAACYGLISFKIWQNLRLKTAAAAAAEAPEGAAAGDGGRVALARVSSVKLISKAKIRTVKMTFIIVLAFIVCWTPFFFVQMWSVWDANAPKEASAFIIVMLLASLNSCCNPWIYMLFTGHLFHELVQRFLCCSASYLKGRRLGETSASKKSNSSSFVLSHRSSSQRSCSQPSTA

oxytocin, sequence (P01178 whole entry, looked up): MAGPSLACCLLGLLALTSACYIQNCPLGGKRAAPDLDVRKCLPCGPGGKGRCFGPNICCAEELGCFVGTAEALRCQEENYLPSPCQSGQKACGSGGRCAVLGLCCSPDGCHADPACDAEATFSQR

Usually Ki stands for the equilibrium dissociation constant of an inhibitor or competing ligand from its target. On to oxytocin (from UniProt P01178), for which the Ki was 790 pM.
